Laboratory results from patent EP2938355B1, “MONOVALENT AND MULTIVALENT LEISHMANIA VACCINES” (VIRBAC S.A., priority 2012, dated 2014).
Positions count from the first letter of the chain named.

Assays:
Test in all cases: Competition binding to HLA class II molecule against reference peptide
Parameters in all cases: species or system Homme
HLA-DR4 = HLA-DR4 (Homo sapiens, UniProt P01903+P01911); conditions: lower ratio = better affinity
Text: (§1) Les tableaux 7 et 8 ci-dessous représentent la concentration en peptide compétiteur (nM) (SEQ ID N°9 ou SEQ ID N°10) pour laquelle 50% de la liaison du peptide de référence aux molécules HLA-DRB1 et aux molécules HLADRB3, -DRB4, -DRB5 et HLA-DP4, est inhibée (IC50).
(§2) Pour chacun des tableaux 7 et 8, les résultats sont issus de deux expériences indépendantes. Tableau 7 :
(§3) Les valeurs indiquées correspondent aux IC50 obtenus pour chaque peptide étudié.
(§4) Plus la valeur de l'IC50 est faible, meilleure est l'affinité du peptide pour la molécule HLA étudiée. Ainsi, il est important de noter que les peptides de référence n'ont pas tous la même capacité de liaison selon la molécule HLA considérée. Ces valeurs correspondent aux valeurs standards attendues.
(§5) Le tableau 9 ci-dessous illustre l'activité relative des deux composés peptidiques SEQ ID N°9 et 10 pour les molécules HLA-DR, HLA-DRB et HLA-DP4 étudiées. L'activité relative est calculée à partir des deux tableaux 7 et 8 ci-dessus de la façon suivante : Ratio = (moyenne des valeurs d'IC50 obtenues pour le peptide testé)/(moyenne des valeurs d'IC50 obtenues avec le peptide de référence). Tableau 9 :
(§6) Dans ce tableau 9, l'activité relative est définie par le ratio obtenu entre la moyenne des IC50 calculée avec le peptide compétiteur et la moyenne des IC50 calculée avec le peptide de référence. L'activité relative permet ainsi de comparer les propriétés de liaison du peptide testé à celle du peptide de référence qui correspond au peptide qui lie de façon la plus efficace une molécule HLA donnée. Ainsi, une activité relative de 2 signifie que le peptide testé lie 2 fois moins efficacement la molécule HLA étudiée que le peptide de référence. Ainsi, plus le ratio est faible, meilleure est l'affinité du peptide pour la molécule HLA considérée.

HLA-DR13 = HLA-DR13 (Homo sapiens, UniProt P01903+P01911); conditions: lower ratio = better affinity
Text: as §1, §2, §3, §4, §5, §6

HLA-DR15 = HLA-DR15 (Homo sapiens, UniProt P01903+P01911); conditions: lower ratio = better affinity
Text: as §1, §2, §3, §4, §5, §6

HLA-DR3 = HLA-DR3 (Homo sapiens, UniProt P01903+P01911); conditions: for activité relative (ratio moyenne IC50 peptide testé / moyenne IC50 peptide de référence): lower ratio = better affinity; for affinité de liaison (in words): HLA-DR3
Text: as §1, §2, §3, §4, §5, §6

HLA-DR7 = HLA-DR7 (Homo sapiens, UniProt P01903+P01911); conditions: for activité relative (ratio moyenne IC50 peptide testé / moyenne IC50 peptide de référence): DR7, lower ratio = better affinity
Text: as §1, §2, §3, §4, §5, §6

HLA-DR1 = HLA-DR1 (Homo sapiens, UniProt P01903+P01911); conditions: for activité relative (ratio moyenne IC50 peptide testé / moyenne IC50 peptide de référence): DR1, lower ratio = better affinity
Text: as §1, §2, §3, §4, §5, §6

HLA-DR11 = HLA-DR11 (Homo sapiens, UniProt P01903+P01911); conditions: lower ratio = better affinity
Text: as §1, §2, §3, §4, §5, §6

HLA-DRB4 = HLA-DRB4 (Homo sapiens, UniProt P01903+P13762); conditions: lower ratio = better affinity
Text: as §1, §2
(§7) Comme pour les résultats présentés ci-dessus, le tableau 8 illustre l'ensemble des valeurs d'IC50 obtenues pour les deux peptides testés et leur peptide de référence comme contrôle interne, pour la liaison aux molécules HLA-DRB3, -DRB4, -DRB5 et aux molécules HLA-DP401 et -DP402. Tableau 8 =:
as §5, §6

HLA-DRB5 = HLA-DRB5 (Homo sapiens, UniProt P01903+Q30154); conditions: for activité relative (ratio moyenne IC50 peptide testé / moyenne IC50 peptide de référence): lower ratio = better affinity
Text: as §1, §2, §7, §5, §6

HLA-DP402 = biological target: T1, HLA-DP402 (Homo sapiens, UniProt P04440+P20036, A65V/A84D/A85E); conditions: lower ratio = better affinity
T1 sequence (P04440 30-258 A65V/A84D/A85E): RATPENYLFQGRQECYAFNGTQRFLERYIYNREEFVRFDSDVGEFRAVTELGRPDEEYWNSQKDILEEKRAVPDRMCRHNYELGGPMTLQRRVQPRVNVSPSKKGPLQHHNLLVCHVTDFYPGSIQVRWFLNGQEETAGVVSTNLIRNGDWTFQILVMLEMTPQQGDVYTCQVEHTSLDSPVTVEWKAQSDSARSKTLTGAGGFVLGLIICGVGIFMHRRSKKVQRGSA
T1 sequence (P20036 29-260): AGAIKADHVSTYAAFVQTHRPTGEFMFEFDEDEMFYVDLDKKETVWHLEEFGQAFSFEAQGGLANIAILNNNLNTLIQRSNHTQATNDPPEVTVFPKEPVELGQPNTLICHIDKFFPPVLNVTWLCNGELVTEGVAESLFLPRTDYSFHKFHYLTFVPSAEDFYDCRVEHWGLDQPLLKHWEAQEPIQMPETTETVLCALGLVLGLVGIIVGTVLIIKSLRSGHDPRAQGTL
Text: as §1, §2, §7, §5, §6

HLA-DP401 = biological target: T2, HLA-DP401 (Homo sapiens, UniProt P04440+P20036); conditions: lower ratio = better affinity
T2 sequence (P04440 30-258): T1 sequence (P04440 30-258 A65V/A84D/A85E) with V36A, D55A, E56A
T2 sequence (P20036 32-260 limits assumed): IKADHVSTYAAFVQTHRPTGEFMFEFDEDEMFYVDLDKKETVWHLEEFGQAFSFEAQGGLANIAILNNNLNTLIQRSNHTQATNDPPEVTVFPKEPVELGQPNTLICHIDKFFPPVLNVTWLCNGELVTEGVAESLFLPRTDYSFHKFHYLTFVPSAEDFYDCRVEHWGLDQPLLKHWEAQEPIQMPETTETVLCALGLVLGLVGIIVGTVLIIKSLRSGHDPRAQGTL
Text: as §1, §2, §7, §5, §6

HLA-DRB3 = HLA-DRB3 (Homo sapiens, UniProt P01903+P79483); conditions: for activité relative (ratio moyenne IC50 peptide testé / moyenne IC50 peptide de référence): DRB3, lower ratio = better affinity; for affinité de liaison (in words): HLADRB3
Text: as §1, §2, §7, §5, §6

Substance | activité relative (ratio moyenne IC50 peptide testé / moyenne IC50 peptide de référence) (HLA-DR4) | activité relative (ratio moyenne IC50 peptide testé / moyenne IC50 peptide de référence) (HLA-DR13) | activité relative (ratio moyenne IC50 peptide testé / moyenne IC50 peptide de référence) (HLA-DR15) | activité relative (ratio moyenne IC50 peptide testé / moyenne IC50 peptide de référence) (HLA-DR3; DR3) | affinité de liaison (in words) (HLA-DR3) | activité relative (ratio moyenne IC50 peptide testé / moyenne IC50 peptide de référence) (HLA-DR7) | affinité de liaison (in words) (HLA-DR7; HLA-DR7) | activité relative (ratio moyenne IC50 peptide testé / moyenne IC50 peptide de référence) (HLA-DR1) | affinité de liaison (in words) (HLA-DR1; HLA-DR1) | activité relative (ratio moyenne IC50 peptide testé / moyenne IC50 peptide de référence) (HLA-DR11) | activité relative (ratio moyenne IC50 peptide testé / moyenne IC50 peptide de référence) (HLA-DRB4) | affinité de liaison (in words) (HLA-DRB5) | activité relative (ratio moyenne IC50 peptide testé / moyenne IC50 peptide de référence) (HLA-DRB5) | activité relative (ratio moyenne IC50 peptide testé / moyenne IC50 peptide de référence) (HLA-DP402) | activité relative (ratio moyenne IC50 peptide testé / moyenne IC50 peptide de référence) (HLA-DP401) | activité relative (ratio moyenne IC50 peptide testé / moyenne IC50 peptide de référence) (HLA-DRB3) | affinité de liaison (in words) (HLA-DRB3) | IC50 (HLA-DR3; DR3, two independent experiments, one line each, read-out: IC50 (concentration en peptide compétiteur pour laquelle 50% de la liaison du peptide de référence est inhibée)) [nM]
TNTLAVLQAFGRAIPELGKKW (TNTLAVLQAFGRAIPELGKKW) [SEQ ID N°9] | 2 | 41 | 5 | >187 | n'est pas actif | 3 | affinité de liaison élevée | 1 | affinité de liaison élevée | 3 | 1331 | affinité de liaison élevée | 0,9 | >2222 | >3727 | >274 | n'est pas actif | –
EGYFVTDEKTGLVYRDGGVAAASSG (EGYFVTDEKTGLVYRDGGVAAASSG) [SEQ ID N°10] | 2 | 18 | 1 | 0,2 | bonne affinité de liaison | 928 | – | 271 | – | 3 | >9535 | – | 688 | 2000 | 5556 | 5 | bonne affinité de liaison | 35
